Test system: fluorescein thiocarbamoyl-labeled (FTC) casein

GST-TMPRSS2 protease domain (AA 255-492), sequence (chain, as listed by the source): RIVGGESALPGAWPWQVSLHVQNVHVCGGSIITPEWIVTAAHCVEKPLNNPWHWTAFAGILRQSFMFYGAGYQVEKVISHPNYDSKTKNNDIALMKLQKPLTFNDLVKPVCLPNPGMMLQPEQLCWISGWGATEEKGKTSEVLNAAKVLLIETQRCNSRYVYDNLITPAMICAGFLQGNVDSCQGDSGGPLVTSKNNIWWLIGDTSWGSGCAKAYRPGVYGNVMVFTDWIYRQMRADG

GST-TMPRSS2 protease domain (AA 255-492)
protease activity, fluorescence of FTC-casein (EnzChek protease assay): purified recombinant GST-20P1F12/TMPRSS2 can cleave a universal substrate, namely casein in a dose dependent manner
